Sequences and labels used below:
B1: glmS ribozyme (parent)
chain: AUAAAAGCGCCAGAACUACAGAAAUGUAGUUGACGAGGAGGAGGUUUAUCGAAUUUUCGGCGGAUGCCUCCAAA

± gives the standard error. Fewer inactive variants are shown than the library holds. A value given as a limit tells only on which side of the number the result lay.

Holding throughout (conditions): with glucosamine-6-phosphate
Data set [1] covers variants of B1. As to the kind of experiment: self-cleavage kobs at 40 uM GlcN6P; higher = faster cleavage; RNA array. A digest of the protocol:
(§1)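 Tiles of sequenced MiSeq chips were imaged over ~14 h at 37 °C. On them, barcoded ribozyme variants had been transcribed in situ by E. coli RNA polymerase and were tracked via a hybridised Cy3 probe while glucosamine-6-phosphate (40 μM to 10 mM) in HEPES/KCl/Mg(OAc)2 buffer flowed in. Per-tile medians, normalised to baseline and to non-cleaving reference variants, were fit to one- or two-exponential decays for kobs, and weighted Michaelis–Menten fits gave kcat and KM.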

Data set [2] covers variants of B1. As to the kind of experiment: self-cleavage kobs at 2500 uM GlcN6P; higher = faster cleavage; RNA array. In short, it runs like this: as §1
The variants in data set [3] derive from B1. As to the kind of experiment: self-cleavage kobs at 10000 uM GlcN6P; higher = faster cleavage; RNA array. In short, it runs like this:
as §1

Variants of B1 are the subject of data set [4]. As to the kind of experiment: self-cleavage kobs at 640 uM GlcN6P; higher = faster cleavage; RNA array. In short, it runs like this: as §1
Variants of B1 are the subject of data set [5]. In words: self-cleavage kobs at 160 uM GlcN6P; higher = faster cleavage; RNA array. In short, it runs like this: as §1

Consider G43U G59A, for which the “self-cleavage kobs at 40 uM GlcN6P” value in data set [1] was < 1e-05 s⁻¹. Besides, in data set [2], the “self-cleavage kobs at 2500 uM GlcN6P” value is < 1e-05 s⁻¹. Besides, the “self-cleavage kobs at 10000 uM GlcN6P” value in data set [3] is < 1e-05 s⁻¹.
In the case of G37U A42G, in data set [1], the “self-cleavage kobs at 40 uM GlcN6P” value is < 1e-05 s⁻¹. In addition, the “self-cleavage kobs at 640 uM GlcN6P” value in data set [4] was < 1e-05 s⁻¹. In addition, the “self-cleavage kobs at 2500 uM GlcN6P” value in data set [2] is < 1e-05 s⁻¹.
On to G43A C68U, for which the “self-cleavage kobs at 40 uM GlcN6P” value in data set [1] is 0.00208 ± 0.00023 s⁻¹. Moreover, in data set [5], the “self-cleavage kobs at 160 uM GlcN6P” value was 0.00432 ± 0.00092 s⁻¹. Also, the “self-cleavage kobs at 640 uM GlcN6P” value in data set [4] was 0.0114 ± 0.0021 s⁻¹. Moreover, the “self-cleavage kobs at 2500 uM GlcN6P” value in data set [2] came to 0.00869 ± 0.0023 s⁻¹. In addition, in data set [3], the “self-cleavage kobs at 10000 uM GlcN6P” value amounted to 0.041 ± 0.0092 s⁻¹.
G51A U57G: the “self-cleavage kobs at 40 uM GlcN6P” value in data set [1] is < 1e-05 s⁻¹. Moreover, the “self-cleavage kobs at 160 uM GlcN6P” value in data set [5] was < 1e-05 s⁻¹. Besides, the “self-cleavage kobs at 2500 uM GlcN6P” value in data set [2] is < 1e-05 s⁻¹.
For the variant A36G G62C C67U, the “self-cleavage kobs at 40 uM GlcN6P” value in data set [1] was < 1e-05 s⁻¹. For the same variant, the “self-cleavage kobs at 10000 uM GlcN6P” value in data set [3] was < 1e-05 s⁻¹.
As to A39G G40A A53C, in data set [1], the “self-cleavage kobs at 40 uM GlcN6P” value came to 3.7e-05 ± 1.8e-05 s⁻¹. Further, the “self-cleavage kobs at 10000 uM GlcN6P” value in data set [3] came to 0.00139 ± 0.00041 s⁻¹.
With C11U U49G C58U G60C, the “self-cleavage kobs at 40 uM GlcN6P” value in data set [1] is < 1e-05 s⁻¹. Moreover, the “self-cleavage kobs at 2500 uM GlcN6P” value in data set [2] was < 1e-05 s⁻¹.
For G40U G44U, the “self-cleavage kobs at 40 uM GlcN6P” value in data set [1] is < 1e-05 s⁻¹. Further, in data set [5], the “self-cleavage kobs at 160 uM GlcN6P” value was < 1e-05 s⁻¹. Further, the “self-cleavage kobs at 640 uM GlcN6P” value in data set [4] was < 1e-05 s⁻¹.
On to U49G U57A, for which the “self-cleavage kobs at 40 uM GlcN6P” value in data set [1] is < 1e-05 s⁻¹. Also, the “self-cleavage kobs at 640 uM GlcN6P” value in data set [4] is < 1e-05 s⁻¹.
Take A15C A36U: the “self-cleavage kobs at 40 uM GlcN6P” value in data set [1] is < 1e-05 s⁻¹. Also, in data set [3], the “self-cleavage kobs at 10000 uM GlcN6P” value is < 1e-05 s⁻¹.
Take A12C C50G: in data set [1], the “self-cleavage kobs at 40 uM GlcN6P” value was 5.75e-05 ± 1.5e-05 s⁻¹. In addition, in data set [5], the “self-cleavage kobs at 160 uM GlcN6P” value turned out to be 0.000244 ± 8.9e-05 s⁻¹. In data set [4], the “self-cleavage kobs at 640 uM GlcN6P” value turned out to be 5.32e-05 ± 1.5e-05 s⁻¹. For the same variant, in data set [2], the “self-cleavage kobs at 2500 uM GlcN6P” value is 8.38e-05 ± 1.9e-05 s⁻¹.
Turning to C16G A36U C50G C68G, the “self-cleavage kobs at 40 uM GlcN6P” value in data set [1] turned out to be 0.000149 ± 4.4e-05 s⁻¹. Further, the “self-cleavage kobs at 160 uM GlcN6P” value in data set [5] turned out to be 0.000256 ± 4.1e-05 s⁻¹. For the same variant, the “self-cleavage kobs at 640 uM GlcN6P” value in data set [4] is 0.000979 ± 0.00021 s⁻¹. In addition, the “self-cleavage kobs at 10000 uM GlcN6P” value in data set [3] came to 0.000404 ± 7.1e-05 s⁻¹.
Consider C10U G29A U47G, for which, in data set [1], the “self-cleavage kobs at 40 uM GlcN6P” value was < 1e-05 s⁻¹.
In the case of C8G G59C, in data set [1], the “self-cleavage kobs at 40 uM GlcN6P” value is < 1e-05 s⁻¹. Further, in data set [4], the “self-cleavage kobs at 640 uM GlcN6P” value was < 1e-05 s⁻¹. Also, the “self-cleavage kobs at 10000 uM GlcN6P” value in data set [3] was < 1e-05 s⁻¹.
C50U G51A: the “self-cleavage kobs at 40 uM GlcN6P” value in data set [1] was < 1e-05 s⁻¹. The “self-cleavage kobs at 640 uM GlcN6P” value in data set [4] was < 1e-05 s⁻¹. For the same variant, the “self-cleavage kobs at 2500 uM GlcN6P” value in data set [2] was < 1e-05 s⁻¹. The “self-cleavage kobs at 10000 uM GlcN6P” value in data set [3] was < 1e-05 s⁻¹.
Take A14G C34U C68G: the “self-cleavage kobs at 40 uM GlcN6P” value in data set [1] was determined as 0.000349 ± 0.00016 s⁻¹. For the same variant, in data set [3], the “self-cleavage kobs at 10000 uM GlcN6P” value was 5.07e-05 ± 2e-05 s⁻¹.
For the variant C11G C34A, in data set [1], the “self-cleavage kobs at 40 uM GlcN6P” value was < 1e-05 s⁻¹. In addition, the “self-cleavage kobs at 160 uM GlcN6P” value in data set [5] is < 1e-05 s⁻¹. The “self-cleavage kobs at 2500 uM GlcN6P” value in data set [2] is < 1e-05 s⁻¹. Moreover, the “self-cleavage kobs at 10000 uM GlcN6P” value in data set [3] was < 1e-05 s⁻¹.
In the case of G29C A33G G38A G40C G43C, the “self-cleavage kobs at 40 uM GlcN6P” value in data set [1] is < 1e-05 s⁻¹.
For the variant U30C G43C, the “self-cleavage kobs at 40 uM GlcN6P” value in data set [1] is < 1e-05 s⁻¹. The “self-cleavage kobs at 160 uM GlcN6P” value in data set [5] was < 1e-05 s⁻¹. Also, the “self-cleavage kobs at 640 uM GlcN6P” value in data set [4] is < 1e-05 s⁻¹. Also, the “self-cleavage kobs at 2500 uM GlcN6P” value in data set [2] is < 1e-05 s⁻¹. Further, in data set [3], the “self-cleavage kobs at 10000 uM GlcN6P” value was < 1e-05 s⁻¹.
In the case of A36C A39C C58U C61A C71A, the “self-cleavage kobs at 40 uM GlcN6P” value in data set [1] was < 1e-05 s⁻¹.
Take G41C G43A C50G C67A U69C: the “self-cleavage kobs at 40 uM GlcN6P” value in data set [1] was < 1e-05 s⁻¹.
As for A48U C50U A52C G63C C71U, the “self-cleavage kobs at 40 uM GlcN6P” value in data set [1] is < 1e-05 s⁻¹.
Consider A52G C61U, for which, in data set [1], the “self-cleavage kobs at 40 uM GlcN6P” value is < 1e-05 s⁻¹. Further, in data set [5], the “self-cleavage kobs at 160 uM GlcN6P” value was < 1e-05 s⁻¹. For the same variant, in data set [2], the “self-cleavage kobs at 2500 uM GlcN6P” value is < 1e-05 s⁻¹.
As to A36G A39G, the “self-cleavage kobs at 40 uM GlcN6P” value in data set [1] was < 1e-05 s⁻¹. For the same variant, the “self-cleavage kobs at 160 uM GlcN6P” value in data set [5] is < 1e-05 s⁻¹. The “self-cleavage kobs at 640 uM GlcN6P” value in data set [4] was < 1e-05 s⁻¹.

For the origin of these results see the supplement of paper PMC7125110.
